For one molecule, Luciferase活性 (荧光值), HCVpp感染Huh7细胞 results are on record in CN106749645A.

The target of the assay is HCV包膜糖蛋白. Description: cell-based or functional assay.

B1: 全人源抗HCV中和抗体TRN1002 (antibody)
heavy: QVQLVQSGAEVKKPGSSVRVSCKASGGTLGSFAGSWVRQAPGQGLEWIGGIIPMFRRTNYAQKFQGRVTITADESTGTTYLELSSLRSDDTAIYFCAREIPGYCTGGRCFGYFDYWGQGTLVTVSS
light: EIVLTQSPGTLSLSPGESATLSCRASQHVNSNFLAWYQQKRGQTPRLLIYAASSRATGIPDRFSGSGSGTDFTLTISRLEPEDFAVYYCQQYGTSLTFGQGTKVEIK
For the molecule B1, the Luciferase活性 (荧光值), HCVpp感染Huh7细胞 was 100 %.
